Experimental data reported in publication PMC2847530 (Molecular Biology of the Cell, 2010).

Target: T1, recombinant hexahistidine-tagged ScSec4 (S. cerevisiae, UniProt P07560 1-215)
T1 sequence: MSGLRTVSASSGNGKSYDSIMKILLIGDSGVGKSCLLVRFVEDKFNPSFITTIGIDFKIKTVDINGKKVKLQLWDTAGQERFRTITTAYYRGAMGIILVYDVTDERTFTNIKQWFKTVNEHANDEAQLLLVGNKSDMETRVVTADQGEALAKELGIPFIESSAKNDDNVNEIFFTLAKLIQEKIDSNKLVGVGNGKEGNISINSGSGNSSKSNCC
Assay: […]) in EDTA binding buffer

B1: GST-ScSec2^1-160 (domain or fragment)
chain: MDASEEAKRVSIQVTSLSTQLIESVDKQSHLEEQLNKSLKTIASQKAAIENYNQLKEDYNTLKRELSDRDDEVKRLREDIAKENELRTKAEEEADKLNKEVEDLTASLFDEANNMVADARKEKYAIEILNKRLTEQLREKDTLLDTLTLQLKNLKKVMHS
**Q.** Does B1 bind?
**A.** Result: binds
